Measurements taken from patent US20220298231A1 (AC IMMUNE, published 2022).
Where a chain is given by its changes, count along the chain named. Where no end group is shown, it is not given here. The star is where a group is joined. Biotin = O=C1N[C@H]2[C@H](CS[C@H]2CCCCC(=O)*)N1; Ahx = NCCCCCC(=O)O

T1: 91-105aa
T1 construct: also called alpha-synuclein peptide 91-105
T1 peptide: {Biotin-Ahx}-ATGFVKKDQLGKNEE

T2: 82-96aa
T2 construct: also called alpha-synuclein peptide 82-96
T2 peptide: {Biotin-Ahx}-VEGAGSIAAATGFVK

T3: 37-51aa
T3 construct: also called alpha-synuclein peptide 37-51
T3 peptide: {Biotin-Ahx}-VLYVGSKTKEGVVHG

T4: 1-15aa
T4 construct: also called alpha-synuclein peptide 1-15
T4 peptide: {Biotin-Ahx}-MDVFMKGLSKAKEGV

T5: 109-123aa
T5 peptide: {Biotin-Ahx}-QEGILEDMPVDPDNE

T6: 100-114aa
T6 peptide: {Biotin-Ahx}-LGKNEEGAPQEGILE

B1: ACI-8033-4F3-Ab1 (antibody, V domains shown)
VH: EVQLQQSGPELVKPGASVKISCKASGYTFTDYYMNWVKQSHGKSLEWIGDINPNTGTNSYNQKFKGRASLTVDKFSSAAYMELRSLTSEDSAVYYCARTGYGDPISSYYYALDYWGQGTSVTVSS
VL: DIVMSQSPSSLAVSAGEKVTMSCKSSQSLLNSRTRKNYLAWYQQKPGQSPKLLIYWASTRESGVPDRFTGSGSGTDFTLTISSVQAEDLAVYYCKQSYNLWTFGGGTKLEIK
notes: mouse hybridoma mAb; also called 917.4F3F4G6
B2: ACI-8033-17F5-Ab1 (antibody, V domains shown)
VH: EVQLQQSGPELVKPGASVKISCKASGYTFTDYFMNWVKQSHGKSLEWIGDINPNIDVTNYNQKFKGKATLTVDKSSSTAYMELRSLTSEDSAVYYCARGRDYAMDFWGQGTSVTVSS
VL: B1 VL with N99D
notes: mouse hybridoma mAb; also called 917.17F5F5G9
B3: ACI-8033-8C10-Ab1 (antibody, V domains shown)
VH: DVQLQESGPGLVKPSQSLSLTCSVTGQSITSGYYWNWIRQFPGNKLEWMGYISNDGSSKTNPSLTNRISVTRDTSKNQVFLKLKSVTTEDTATYYCVRGDQHWGQGTALTVSS
VL: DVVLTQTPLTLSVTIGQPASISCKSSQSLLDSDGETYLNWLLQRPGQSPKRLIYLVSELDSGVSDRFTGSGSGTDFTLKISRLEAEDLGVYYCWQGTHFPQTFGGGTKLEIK
notes: mouse hybridoma mAb; also called 917.8C10C6G3
B4: ACI-7088-4301D5-Ab2 (antibody, V domains shown)
VH: QVQLQQSGPELVRPGASVKISCKASGYRFTSYYIHWVKQRPGQGLEWIGWIYPGSDNTKHNDKFKGKATLTADTSSSTAYMQLSSLTSEDSAVYFCARDYDVGFGYWGQGTLVTVSS
VL: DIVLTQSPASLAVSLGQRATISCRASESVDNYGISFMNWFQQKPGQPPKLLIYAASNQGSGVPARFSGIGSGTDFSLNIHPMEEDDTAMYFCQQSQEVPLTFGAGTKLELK
notes: mouse hybridoma mAb; also called 4301D5B10
B5: ACI-7089-4417G6-Ab1 (antibody, V domains shown)
VH: QVQLQQSGAELVRPGASVTLSCKASGYTFTGYEMHWVKQTPVHGLEWIGAIDPETGGTAYIQKFKGKATLTADKSSSTAYMELRSLTSEDSAVYYCTRGWDYFDYWGQGTTLTVSA
VL: DVVMTQTPLSLPVSLGDQASISCRSSQSLLHSNGFTYLHWYLQKPGQSPKLLIYRVSNRFSGVPDRFSGSGSGTDFTLKISRVEAEDLGVYFCSQSTHVPYTFGGGTKLEIK
notes: mouse hybridoma mAb; also called 4417G6B12
B6: ACI-7088-4303B6-Ab2 (antibody, V domains shown)
VH: EVQLQQSGPELVKPGASVKISCKASGYTFTDYYMNWVKQSHGKSLEWIGDINPNNGGTTYNQKFKDKATLTVDRSSSTAYMELRSLTSGDSAVYYCARSGYSGSRLYYAMDYWSQGSSVTVSS
VL: B1 VL with G16R, Y55F, N99D
notes: mouse hybridoma mAb; tied by the hybridoma code 4303B6C11; also called ACI-7088-4303B6-Ab1; 4303B6C11
B7: ACI-7089-4418F6-Ab1 (antibody, V domains shown)
VH: QVQLQQSGAELARPGASVKVSCKASGYTFTSSGISWLKHRTGQGLEWIGDIYPRSGNTYYNEKFKDKATLTADKSSSTAYMELRSLTSEDSAVYFCSSGNYWGQGTTLTVSS
VL: DIVITQDDLSNPVTSGESVSISCRSSKSLLYKDGKTYLNWFLQRPGQSPQLLIYLMSTRASGVSDRFSGSGSGTDFTLEISRVKAEDVGVYYCQQLLEYPLTFGAGTKLELK
notes: mouse hybridoma mAb; also called 4418F6G7
B8: ACI-7087-4119E10-Ab2 (antibody, V domains shown)
VH: QVQLQQSGAELVRPGASVTLSCKASGYTFSDYEMNWVKQTPVHGLEWIGAIDPETGGTAYNQKFKGKAILTSDKSSSTAYMELRSLTSEDSAVYYCTRFLLIDFDYWGQGTTLTVSS
VL: DVLMTQTPLSLPVSLGDQASISCRSSQSIVHSNGNTYLEWYLKKAGQSPKVLIYKVSNRFSGVPDRFSGSGSGTDFTLKISRVEAEDLGVYYCFQGSHVPYTFGGGTELEIK
notes: mouse hybridoma mAb; also called 4119E10D12
B9: ACI-7088-4303A3-Ab1 (antibody, V domains shown)
VH: QVQLQQSGAELVRPGASVTLSCKASGYTFTDYEMHWVKQTPVHGLEWIGVIDPETGGAVQNQKFKGKAILTADNSSSTAYMDLRSLTSEDSAVYNCAMGAALRLAYWGQGTLVTVSS
VL: B8 VL with T36S, K43Q, A45P, V51L, S81N, Y101F, G105S, E108K
notes: mouse hybridoma mAb; also called 4303A3E4
B10: ACI-7088-4301H3-Ab2 (antibody, V domains shown)
VH: B2 VH with T30A, I55N, D56G, V57G, N59T, S77N, D101N, F106Y
VL: B1 VL with W56S, S73F, N99D
notes: mouse hybridoma mAb; also called 4301H3A5
B11: ACI-7088-4303H6-Ab1 (antibody, V domains shown)
VH: EVQLQQSGAELVRPGASVKLSCTASGFNIQDDYMHWVKQRPEQGLEWIGWIDPENGDTEYASKFQGKATLTADTSSNTAYLQLSRLTSEDTAVYYCTTAGSGVQLFDYWGQGTTLTVSA
VL: DILMTQSQKFMSTSVGDRVSVTCKASQNVGTNVAWYQQKPGQSPKPLISSASSRYSGVPDRFTGSGSGTDFTLTISNVQSEDLADYFCQQYNRYPLTFGAGTKLELK
notes: mouse hybridoma mAb; tied by the hybridoma code 4303H6D7; also called 4303H6D7
B12: ACI-7088-4305H7-Ab1 (antibody, V domains shown)
VH: EVQLQQSGAELVRPGASVKLSCTASGFNIKDDYMHWVKQRPEQGLEWIGWIDPENGDTEYASKFQGKATMIADTSSNTAYLQLSSLTSEDTAVYYCKTWGTTQALFPYWGQGTLVTVSS
VL: DIVMTQSQKFMSTSVGDRVSITCKASQNVGTAVGWYQQKAGQSPKLLIHSASNRYTGVPDRFTGSGSGTDFTLTINNMQSEDLADYFCQQYRSYPLTFGAGTKLELK
notes: mouse hybridoma mAb; also called 4305H7A4
B13: ACI-7089-4418C5-Ab1 (antibody, V domains shown)
VH: DGQLQESGPGLVKPSQSLSLTCSVTGYSITSGYYWNWIRQFPGNKLEWMGYINYDGSNNYNPSLKNRISITRDTSKNQFFLKFNFVTTEDTATYYCVRGDVYWGQGTTLTVSS
VL: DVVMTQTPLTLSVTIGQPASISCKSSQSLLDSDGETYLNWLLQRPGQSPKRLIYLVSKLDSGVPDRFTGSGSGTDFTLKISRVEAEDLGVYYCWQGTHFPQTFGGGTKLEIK
notes: mouse hybridoma mAb; also called 4418C5G1
B14: ACI-7089-4409F1-Ab1 (antibody, V domains shown)
VH: DVQLQESGPGLVKPSQSLSLTCSVTGYSITRGYYWNWIRQFPGNKLEWMGYISYDGSNNYNPSLRNRISITRDTSKNQFFLKLKSVTTEDTATYFCARGDSNWGQGTTLTVSA
VL: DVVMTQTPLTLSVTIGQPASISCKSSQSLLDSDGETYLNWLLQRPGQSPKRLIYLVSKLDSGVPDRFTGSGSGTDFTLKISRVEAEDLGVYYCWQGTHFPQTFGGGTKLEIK
notes: mouse hybridoma mAb; also called 4409F1A8

Target: T1, 91-105aa
Experiment: indirect ELISA on biotinylated 15-mer peptide (streptavidin plate), supernatant 1/100
Experimental: (§1) Epitope mapping for the antibodies derived from stable hybridoma clones was determined using an indirect ELISA on a library of 15-mer peptides covering the entire sequence of human alpha-synuclein from 1 to 140aa. […] Results are expressed as optical density (O.D.). Each bar represents data for an individual antibody.
(§2) Serum-free supernatants were harvested from stable hybridomas. The supernatants containing antibodies of interest were then screened by an indirect ELISA assay to determine epitopes. Epitopes were first determined using a library of 15-mer peptides covering the entire sequence of human alpha-synuclein protein, spanning amino acids (aa) 1-140 with 9aa offset and 6aa overlap. […] Briefly, streptavidin-coated ELISA plates were blocked overnight at 4° C. […] Plates were washed with PBS/0.05% Tween® 20 and then incubated with the hybridoma supernatants at 1/100 dilution for 1 hour at 25° C. […] After final wash, plates were incubated 2 hours at 25° C. with alkaline phosphatase substrate (p-nitrophenyl phosphate disodium hexahydrate; pNPP, S0942, Sigma) and read the absorbance optical density (O.D.) signal at 405 nm using an ELISA plate reader (Tecan, Switzerland).

binding result | Binder
binds | B1
binds | B2

Target: T2, 82-96aa
Experiment: as above
Experimental: as §1, §2

binding result | Binder
binds | B3

Target: T1, 91-105aa
Experiment: 15-mer peptide ELISA
Experimental: as §1, §2

binding result | Binder
no binding (tested: supernatant 1/100) | B4
no binding (tested: supernatant 1/100) | B5
no binding (tested: supernatant 1/100) | B6
no binding (tested: supernatant 1/100) | B7
no binding (tested: supernatant 1/100) | B8
no binding (tested: supernatant 1/100) | B9

Target: T2, 82-96aa
Experiment: 15-mer peptide ELISA
Experimental: as §1, §2

binding result | Binder
no binding (tested: supernatant 1/100) | B4
no binding (tested: supernatant 1/100) | B5
no binding (tested: supernatant 1/100) | B10
no binding (tested: supernatant 1/100) | B6
no binding (tested: supernatant 1/100) | B11
no binding (tested: supernatant 1/100) | B8
no binding (tested: supernatant 1/100) | B9
no binding (tested: supernatant 1/100) | B12

The binders below were run against human full-length alpha-synuclein (human, UniProt P37840 1-140) (assay: SPR, mAb captured).
Experimental: (§3) Immobilization levels were evaluated following ethanolamine capping (Bound) and finally following regeneration (Final). Non-covalent immobilization of alpha-synuclein antibodies was performed using a target immobilization method of 2000 response units (RU).
(§4) Binding affinity of alpha-synuclein antibodies to monomeric or fibrillar alpha-synuclein species was performed using a single-cycle kinetics method. […] A dissociation phase of 900 sec followed the final 50 nM injection. Regeneration of the sensor to the goat anti-mouse antibody layer was achieved using 3 regenerations of 10 mM Glycine pH 1.7. […] Regeneration of the sensor to the goat anti-mouse antibody layer was achieved using 3 regenerations of 10 mM Glycine pH 1.7. Results obtained from single-cycle kinetics were evaluated by Biacore T200 evaluation software with 1:1 binding homogenous Langmuir model (with a global Rmax) with Cycle 5 as a blank subtraction. The following kinetic parameters were obtained: on-rate (ka), off-rate (kd), affinity constant (KD, ratio of kd by ka), maximum response (Rmax), and goodness of fit (Chi2).
(§5) Non-covalent capture of the alpha-synuclein antibodies was performed in three separate runs.

Kd | koff | kon | Binder
22.6 nM | 5.58 s⁻¹ | 2.47e+08 M⁻¹ s⁻¹ | B5
78.5 nM | 0.106 s⁻¹ | 1.35e+06 M⁻¹ s⁻¹ | B6

What follows are binders tested against alpha-synuclein fibrils (Homo sapiens (Human), UniProt P37840 1-140) (assay: SPR, mAb captured).
Experimental: as §3, §4, §5

Kd | koff | kon | Binder
48.7 nM | 0.00874 s⁻¹ | 179000 M⁻¹ s⁻¹ | B5
9.5 nM | 0.00013 s⁻¹ | 13700 M⁻¹ s⁻¹ | B6

Target: T1, 91-105aa
Experiment: indirect ELISA on biotinylated 15-mer peptide (streptavidin plate), supernatant 1/100
Remark: another data set of the same source
Experimental: as §1, §2

binding result | Binder
binds | B10
binds | B11
binds | B12

Target: T2, 82-96aa
Experiment: as above
Remark: another data set of the same source
Experimental: as §1, §2

binding result | Binder
binds | B13
binds | B14
binds | B7

Target: T3, 37-51aa
Experiment: as above
Experimental: as §1, §2

binding result | Binder
binds | B4
binds | B8
binds | B9

Target: T4, 1-15aa
Experiment: as above
Experimental: as §1, §2

binding result | Binder
binds | B6
binds | B12

Each binder was assayed against 28-42aa in the same assay as above.
Experimental: as §1, §2

binding result | Binder
binds | B4
binds | B8

Target: T5, 109-123aa
Experiment: 15-mer peptide ELISA
Experimental: as §1, §2

binding result | Binder
no binding (tested: supernatant 1/100) | B1
no binding (tested: supernatant 1/100) | B2
no binding (tested: supernatant 1/100) | B3

Target: T6, 100-114aa
Experiment: 15-mer peptide ELISA
Experimental: as §1, §2

binding result | Binder
no binding (tested: supernatant 1/100) | B1
no binding (tested: supernatant 1/100) | B2
no binding (tested: supernatant 1/100) | B3

Target: T2, 82-96aa
Experiment: 15-mer peptide ELISA
Remark: another data set of the same source
Experimental: as §1, §2

binding result | Binder
no binding (tested: supernatant 1/100) | B1
no binding (tested: supernatant 1/100) | B2

Target: T3, 37-51aa
Experiment: 15-mer peptide ELISA
Experimental: as §1, §2

binding result | Binder
no binding (tested: supernatant 1/100) | B14
no binding (tested: supernatant 1/100) | B10
no binding (tested: supernatant 1/100) | B6
no binding (tested: supernatant 1/100) | B11
no binding (tested: supernatant 1/100) | B7
no binding (tested: supernatant 1/100) | B12

Target: T4, 1-15aa
Experiment: 15-mer peptide ELISA
Experimental: as §1, §2

binding result | Binder
no binding (tested: supernatant 1/100) | B4
no binding (tested: supernatant 1/100) | B14
no binding (tested: supernatant 1/100) | B5
no binding (tested: supernatant 1/100) | B10
no binding (tested: supernatant 1/100) | B11
no binding (tested: supernatant 1/100) | B7
no binding (tested: supernatant 1/100) | B8
no binding (tested: supernatant 1/100) | B9

These binders were tested against 28-42aa (assay: 15-mer peptide ELISA).
Experimental: as §1, §2

binding result | Binder
no binding (tested: supernatant 1/100) | B5
no binding (tested: supernatant 1/100) | B6
